Source: patent publication US12365732 (23ANDME, dated 2025)
Substitutions are numbered along the chain they refer to. Names may count otherwise.

Assays:
[1] = target: T1, hu-CD96 Fc (human, biotinylated in Table 16); assay: SPR 25C, CD96-Fc on Protein A, Fab analyte
T1 construct: also called biotinylated hu-CD96-Fc
Method: Briefly, hu-CD96 Fc and cy-CD96 Fc were diluted at 10 µg/mL in HBS-P buffer (0.01 M HEPES pH 7.4, 0.15 M NaCl, 0.005% Surfactant P20) and applied to the Protein A chip at 30 µL/min flow rate for 60 s in flow cell 2 (FC2). Then flow 3-fold serial dilutions of mAb1.v7 Fab variants in HBS-P buffer (0.01 M HEPES pH 7.4, 0.15 M NaCl, 0.005% surfactant P20) from (0.4 nM) to high (1000 nM) were injected (flow rate: 30 µL/min) at 25° C. to both flow cell 1 (FC1) and flow cell 2 (FC2). The sensorgram was recorded and subject to reference and buffer subtraction before evaluating by BIA- CORE® 8K Evaluation Software (version 1.1.1.7442). Association rates ($kon$) and dissociation rates ($koff$) were calculated using a simple one-to-one Langmuir binding model. The equilibrium dissociation constant (K_D) was calculated as the ratio of $koff/kon$, and the values determined for the mAb1.v7 and the 5 Fab variants are summarized in Table 10 (below).

[2] = target: T2, hu-CD96 (soluble, isoform 2 extracellular domain) (human, UniProt P40200 22-516, biotinylated in Octet and blocking ELISA); assay: ELISA, blocks biotin-CD96 binding to coated hu-CD155-mFc
T2 construct: the assays name only hu-CD96; also called hCD96; biotinylated hu-CD96
T2 sequence: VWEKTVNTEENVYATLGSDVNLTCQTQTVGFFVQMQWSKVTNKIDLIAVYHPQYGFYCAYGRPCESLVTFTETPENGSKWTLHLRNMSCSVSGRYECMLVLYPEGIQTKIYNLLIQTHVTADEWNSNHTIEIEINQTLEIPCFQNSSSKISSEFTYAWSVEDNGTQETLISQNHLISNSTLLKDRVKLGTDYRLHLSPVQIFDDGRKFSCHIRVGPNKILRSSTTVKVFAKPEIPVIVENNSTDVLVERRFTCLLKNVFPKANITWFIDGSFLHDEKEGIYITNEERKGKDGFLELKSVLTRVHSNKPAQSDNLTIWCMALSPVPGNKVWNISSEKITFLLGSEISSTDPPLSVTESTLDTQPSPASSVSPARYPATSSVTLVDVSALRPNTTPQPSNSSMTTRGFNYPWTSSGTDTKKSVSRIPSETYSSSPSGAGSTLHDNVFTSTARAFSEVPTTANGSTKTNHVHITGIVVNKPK
Method: The selected 5 affinity matured Fab variants of mAb1.v7 Fab were assayed for blocking of human CD155 (hu-CD155) receptor by ELISA as follows. Briefly, 96-well MAXISORP® flat bottom plates (Thermofisher, Cat #439454) were coated overnight at 4° C. with 2 µg/mL goat anti-mouse Fc (Thermofisher, Cat #31168) in PBS. After removing the coating solution, unspecific binding was blocked with PBS containing 1% bovine serum albumin (BSA) and incubation at room temperature for one hour. Plates were then washed five times in PBS with 0.05% TWEEN®-20 (wash buffer) and added […] hu-CD155-mFc in PBS for 1 hour in room temperature. During blocking period, 50 µL/well of 4 nM biotinylated hu-CD96 or 40 nM biotinylated cy-CD96 with serial dilution of the Fab variants 50 µL/well (starting at 2 µM, 1:3 dilution) for two hours at room temperature with PBS containing 0.5% BSA and 0.05% Tween 20 (ELISA buffer) in NUNC F plate (Thermofisher, Cat #269620). Then transferred the antigen-antibody mix solution 80 µL/well into hu-CD155-mFc coated wells at room temperature for 15 min. Plates were then washed with wash buffer to which was added 50 µL/well Streptavidin poly-HRP (Thermofisher, Cat #21140) diluted 1:5000 in ELISA buffer at room temperature for one hour with agitation. […] Enzymatic color development was stopped with 50 µL/well of TMB stop solution (VWR, Cat #95059-200). Plates were analyzed with a SpectraMax i3X plate reader (Molecular Devices) at 450 nm. […] The blocking $IC50$ values for the mAbv1.7 and the 5 selected affinity matured Fab variants (mAb1.v7.2, mAb1.v7.9, mAb1.v7.16, mAb1.v7.48, mAb1.v7.70) are summarized in Table 10 (above).

[3] = target: T2, hu-CD96 (soluble, isoform 2 …); assay: BLI (Octet), biotin-CD96 on SA, Fab analyte
Method: The binding affinity of the generated Fab variants of mAb1.v7 for hu-CD96 and cy-CD96 was determined by OCTET (Pall ForteBio) Bio-Layer Interferometry (BLI) binding analysis. The biotinylated hu-CD96 or biotinylated cy-CD96 was diluted to a final concentration 10 µg/mL in experimental buffer (PBS buffer with 0.01% Tween-20) and immobilized on the Streptavidin Capture (SA) biosensors (Pall ForteBio). Three-fold serial dilutions of the mAb1.v7 Fab variants starting at 1 µM as analytes were diluted in the experimental buffer (PBS buffer with 0.01% Tween-20). The biosensors were equilibrated in experimental buffer at 30° C. for ten minutes prior to starting the experiment. The kinetics experiment was performed with the following steps, where the step name, solution and time are listed: Baseline (buffer—60 seconds), Loading (biotinylated antigen—200 seconds), Baseline 2 (buffer—minimum 120 seconds), Association (analyte—200-300 seconds) and Dissociation (buffer—1000 seconds). The resulting BLI signal from analyte association and dissociation from the […] was analyzed using the Octet Data Analysis software (Pall ForteBio). First a reference subtraction was performed on all recorded traces using the reference well (biosensor that underwent same steps as experimental wells but no analyte for the Association step) and then all the traces were aligned to the beginning of the Association step. The entirety of the Association and Dissociation steps were used in a Global fit (minimum of four analyte concentration traces) in a 1:1 binding model to calculate the K_D values for the 16 selected individual mAb1.v7 Fab variants as summarized in Table 9 (below).

B1: mAb1.v7 Fab (Fab, V domains shown)
VH: EVQLVQSGAEVKKPGASVKVSCKASGFTFTNNWMHWVRQAPGQGLEWIGMIHPNSGITNINEKFKNRVTMTTDTSTSTAYMELRSLRSEDTAVYYCRSDGTYEGYFDYWGQGTLVTVSS
VL: DIQLTQSPSSLSASVGDRVTITCKASQNVGTAIVWYQQKPGKAPKVLIYSASTRYTGVPSRFSGSGSGTDFTLTISSLQPEDFATYYCQQYSSSPLTFGQGTKVEIK
Work on B1 yielded a Kd [1] of 44.6 nM, a koff [1] of 0.000817 s⁻¹ and a kon [1] of 18300 M⁻¹ s⁻¹. For the same binder, the “apparent IC50 (pooled screen)” value [2] was 0.74 nM and the “apparent Kd (pooled screen)” value [3] was 76 nM.

B2: mAb1.v7.48 Fab (Fab, V domains shown)
VH: B1 VH with N32R, P53H, T101V
VL: B1 VL
notes: also called N32R/P52aH/T97V
Work on B2 yielded a Kd [1] of 0.795 nM, a koff [1] of 1.26e-05 s⁻¹ and a kon [1] of 15900 M⁻¹ s⁻¹. It also gave an IC50 [2] of 0.42 nM and a Kd [3] of roughly 0.1 nM.

B3: mAb1.v7.9 Fab (Fab, V domains shown)
VH: B1 VH with M34R, P53M, T101V
VL: B1 VL
notes: also called M34R/P52aM/T97V
B3 was tested, and the Kd [1] was 5.05 nM, the koff [1] was 7.02e-05 s⁻¹ and the kon [1] was 13900 M⁻¹ s⁻¹. The IC50 [2] was 0.42 nM and the Kd [3] was roughly 0.1 nM.

B4: mAb1.v7.70 Fab (Fab, V domains shown)
VH: B1 VH with N32R, P53A, T101V
VL: B1 VL
notes: also called N32R/P52aA/T97V
B4 was tested, and the Kd [1] was 1.73 nM, the koff [1] was 2.74e-05 s⁻¹ and the kon [1] was 15900 M⁻¹ s⁻¹. The IC50 [2] was 0.8 nM and the Kd [3] was roughly 0.1 nM.

B5: mAb1.v7.16 Fab (Fab, V domains shown)
VH: B1 VH with M34R, T101V
VL: B1 VL
notes: also called M34R/T97V
For B5, the Kd [1] was 0.38 nM, the koff [1] was 2.81e-06 s⁻¹ and the kon [1] was 7380 M⁻¹ s⁻¹. The IC50 [2] was 0.8 nM and the Kd [3] was 1.4 nM.

B6: mAb1.v7.2 Fab (Fab, V domains shown)
VH: B1 VH with M34R, P53F, T101V
VL: B1 VL
notes: also called M34R/P52aF/T97V
B6 gave a Kd [1] of 0.67 nM, a koff [1] of 1.06e-05 s⁻¹ and a kon [1] of 15800 M⁻¹ s⁻¹. It also gave an IC50 [2] of 0.7 nM and a Kd [3] of 3.75 nM.
